Values quoted from earlier work in PMC3128382.

Molecular target: TbpA (Neisseria gonorrhoeae) (UniProt Q01996)
UniProt Q01996, sequence (Q01996 25-915): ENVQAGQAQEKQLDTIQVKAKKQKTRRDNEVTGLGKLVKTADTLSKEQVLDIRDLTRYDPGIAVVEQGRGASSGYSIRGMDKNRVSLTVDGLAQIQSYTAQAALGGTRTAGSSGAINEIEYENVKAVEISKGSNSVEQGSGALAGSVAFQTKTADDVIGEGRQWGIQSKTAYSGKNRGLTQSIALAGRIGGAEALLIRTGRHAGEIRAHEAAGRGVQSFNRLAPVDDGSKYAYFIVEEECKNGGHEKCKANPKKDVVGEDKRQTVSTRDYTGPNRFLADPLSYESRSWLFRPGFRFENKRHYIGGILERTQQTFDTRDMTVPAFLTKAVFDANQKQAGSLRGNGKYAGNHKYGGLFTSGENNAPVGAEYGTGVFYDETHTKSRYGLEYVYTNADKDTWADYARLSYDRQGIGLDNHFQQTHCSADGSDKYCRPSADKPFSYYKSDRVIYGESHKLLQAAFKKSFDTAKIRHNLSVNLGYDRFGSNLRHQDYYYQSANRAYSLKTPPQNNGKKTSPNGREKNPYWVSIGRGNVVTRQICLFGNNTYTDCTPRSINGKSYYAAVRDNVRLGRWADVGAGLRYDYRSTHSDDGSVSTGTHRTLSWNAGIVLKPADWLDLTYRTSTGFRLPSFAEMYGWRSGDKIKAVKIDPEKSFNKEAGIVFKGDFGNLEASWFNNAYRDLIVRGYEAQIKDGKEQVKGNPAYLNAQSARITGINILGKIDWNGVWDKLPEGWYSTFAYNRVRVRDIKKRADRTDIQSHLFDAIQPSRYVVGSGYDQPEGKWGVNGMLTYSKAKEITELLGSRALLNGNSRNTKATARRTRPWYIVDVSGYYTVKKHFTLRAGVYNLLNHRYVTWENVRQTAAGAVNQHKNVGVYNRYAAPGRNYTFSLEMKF

## Transferrin (from UniProt P02787)
  Kd: 10 nM
